3 molecules from patent US20240150474A1 (Regeneron, published 2024) can be followed below.

For test [1], the target named is T1, mouse ACVR1 extracellular domain expressed with a C-terminal myc-myc-hexahistidine tag (mouse).
T1 construct: also called mACVR1-mmh; mACVR1.mmh
T1 chain: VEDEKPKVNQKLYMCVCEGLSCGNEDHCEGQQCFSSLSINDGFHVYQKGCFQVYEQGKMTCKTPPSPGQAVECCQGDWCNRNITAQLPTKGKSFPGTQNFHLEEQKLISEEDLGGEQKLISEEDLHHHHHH
Put plainly: SPR Biacore T200, mAb captured by anti-human Fc, mACVR1-mmh injected, 37C. How it is done:
(§1) Equilibrium dissociation constants (KD) for ACVR1 binding to purified anti-ACVR1 monoclonal antibodies were determined using a real-time surface plasmon resonance (SPR) based Biacore T200 biosensor. All binding studies were performed in 10 mM HEPES, 150 mM NaCl, 3 mM EDTA, and 0.05% v/v surfactant Tween-20, pH 7.4 (HBS-EP) running buffer at […]. The Biacore CM5 sensor surface was first derivatized by amine coupling with a monoclonal mouse anti-human Fc antibody (REGN2567) to capture anti-ACVR1 monoclonal antibodies. Different concentrations of ACVR1 reagents, human ACVR1 extracellular domain expressed with a C-terminal myc-myc-hexahistidine tag (hACVR1-mmh; REGN3111, SEQ ID NO: 63), mouse ACVR1 extracellular domain expressed with a C-terminal myc-myc-hexahistidine tag (mACVR1-mmh; REGN3407, SEQ ID NO: 65), human ACVR1 extracellular domain expressed with a C-terminal mouse IgG2a Fc tag (hACVR1-mFc; REGN3112, SEQ ID NO: 64); and mouse ACVR1 extracellular domain expressed with a C-terminal mouse IgG2a Fc tag (mACVR1-mFc, R&D system), at concentrations ranging from 0.41 nM to 100 nM in a series of 3-fold dilutions prepared in HBS-EP running buffer were injected at a flow rate of 50 μL/min for 1.5 minutes. The dissociation of different ACVR1 reagents bound to anti-ACVR1 monoclonal antibodies was monitored for 20 minutes in HBS-EP running buffer. At the end of each cycle, the anti-ACVR1 monoclonal antibodies capture surface was regenerated using a 12 sec injection of 20 mM H3PO4. The association rate (ka) and dissociation rate (kd) were determined by fitting the real-time binding sensorgrams to a 1:1 binding model with mass transport limitation using Scrubber 2.0c curve-fitting software. Binding dissociation equilibrium constant (KD) and dissociative half-life (t½) were calculated from the kinetic rates as: […]
(§2) Binding kinetics parameters for different ACVR1 reagents to anti-ACVR1 monoclonal antibodies of the invention at 37° C. are shown in Table 5 through Table 8.
For orientation: Surface plasmon resonance follows binding to a sensor surface in real time, without labels.

Test [2] deals with T2, mouse ACVR1 extracellular domain expressed with a C-terminal mouse IgG2a Fc tag (mouse, UniProt P37172 21-123).
T2 construct: extracellular domain; Bought from R&D Systems; also called mACVR1-mFc; R&D System 6506-RA-100; not shown: mouse IgG2a Fc tag
T2 sequence (looked up): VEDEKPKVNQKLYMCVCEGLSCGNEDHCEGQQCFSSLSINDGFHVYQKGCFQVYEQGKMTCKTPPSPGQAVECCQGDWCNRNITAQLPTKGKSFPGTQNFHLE
Put plainly: SPR Biacore T200, mAb captured by anti-human Fc, mACVR1-mFc injected, 37C. How it is done: as §1, §2

Test [3] has as its target T3, human ACVR1 extracellular domain expressed with a C-terminal mouse IgG2a Fc tag (human).
T3 construct: also called hACVR1-mFc; REGN3112
T3 chain: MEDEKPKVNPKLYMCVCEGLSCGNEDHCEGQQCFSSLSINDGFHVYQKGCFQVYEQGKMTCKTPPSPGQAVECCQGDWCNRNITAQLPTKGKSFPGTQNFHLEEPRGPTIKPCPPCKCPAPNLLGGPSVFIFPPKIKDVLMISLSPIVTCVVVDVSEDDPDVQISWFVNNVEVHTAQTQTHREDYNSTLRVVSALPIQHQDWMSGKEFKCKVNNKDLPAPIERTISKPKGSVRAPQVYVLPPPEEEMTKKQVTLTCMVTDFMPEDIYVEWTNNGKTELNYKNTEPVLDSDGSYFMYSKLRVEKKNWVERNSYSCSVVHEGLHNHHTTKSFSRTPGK
As to the kind of experiment: SPR Biacore T200, mAb captured by anti-human Fc, hACVR1-mFc injected, 37C. Here is the method: as §1, §2

Test [4] deals with T4, human ACVR1 extracellular domain expressed with a C-terminal myc-myc-hexahistidine tag (human).
T4 construct: also called hACVR1-mmh; hACVR1.mmh
T4 chain: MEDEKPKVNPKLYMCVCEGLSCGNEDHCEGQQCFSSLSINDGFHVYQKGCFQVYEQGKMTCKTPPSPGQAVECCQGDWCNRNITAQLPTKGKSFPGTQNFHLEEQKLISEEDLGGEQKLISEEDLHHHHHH
As to the kind of experiment: SPR Biacore T200, mAb captured by anti-human Fc, hACVR1-mmh injected, 37C. How it is done:
as §1, §2

The next test addresses T5, dimeric mouse ACVRL1 (mouse, UniProt Q61288 23-119, limits assumed).
T5 construct: Construct and dimerising part not described; also called Mouse Receptor ACVRL1
T5 sequence (looked up): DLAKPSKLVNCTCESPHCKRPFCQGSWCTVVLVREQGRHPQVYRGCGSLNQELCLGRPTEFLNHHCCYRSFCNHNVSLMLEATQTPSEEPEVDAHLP
As to the kind of experiment: SPR Biacore T200, mAb captured by anti-human Fab, 100 nM dimeric receptor injected, 25C. Here is the method: (§3) ACVR1 mAbs were tested for cross-reactivity to a panel of bone morphogenic protein type 1 receptors including human and mouse ACVR1, BMPR1A, and BMPR1B, as well as ACVRL1 on a Biacore T200 as follows. In order to measure the specificity of ACVR1 mAbs, ACVR1 mAbs were captured with anti-human Fab immobilized on a CM5 chip. 100 nM or 10 nM of dimeric human or mouse ACVR1, ACVRL1, BMPR1A or BMPR1B were injected at 30 μL/min for 2 min (duplicate injections) and the experiment was performed at 25° C. Binding of different receptors to the captured mAb was determined using Scrubber 2.0c software.

Another test addresses T6, dimeric mouse BMPR1B (mouse, UniProt P36898 14-126, limits assumed).
T6 construct: Construct and dimerising part not described; also called Mouse Receptor BMPR1B
T6 sequence (looked up): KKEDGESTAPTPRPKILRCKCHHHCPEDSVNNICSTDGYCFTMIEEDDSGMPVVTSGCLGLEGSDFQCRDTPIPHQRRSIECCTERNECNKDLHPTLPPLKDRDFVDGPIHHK
Described as above. How it is done: as §3

B1: REGN 5168 (antibody, human IgG4 S228P, kappa, V domains shown)
VH: QVQLVQSGAEVKEPGASVKVSCKASGYTFAEYYMHWVRQAPGQGLEWMGAINPSGSHTSYAQKFQGRVTMTRDTSTSTVYMELSSLRSEDTAVYYCARSISGKRGGDYYGMDVWGQGTTVTVSS
VL: DIQMTQSPSTLSASVGDRVTITCRASQSISSWLAWYQQKPGKAPKLLIYKASSLESGVPSRFSGSGSGTEFTLTISSLQPDDFATYYCQQYSIFPFTFGGGTKVEIKR
notes: also called REGN 5168-L1
Regarding B1, in test [1], the “100 nM Ag Bound (RU)” value was found to be 42 RU, binding was characterised by a dissociation constant (Kd) of 1.24 nM, the koff was 0.00167 s⁻¹ and the kon is 1.34e+06 M⁻¹ s⁻¹. In test [1], this molecule returned a t½ of 7 min. Also, in test [2], the “100 nM Ag Bound (RU)” value is 135 RU, the Kd worked out at 0.0362 nM, the koff was found to be 0.000111 s⁻¹ and the kon was 3.06e+06 M⁻¹ s⁻¹. The t½ in test [2] came out at 104 min. In test [3], the “100 nM Ag Bound (RU)” value was found to be 145 RU, the Kd stood at 0.191 nM, the koff is 0.000357 s⁻¹ and the kon stood at 1.87e+06 M⁻¹ s⁻¹. In addition, the t½ in test [3] was 32 min. Also, in test [4], the “100 nM Ag Bound (RU)” value came out at 42 RU, binding was put at a Kd of 1.21 nM, the koff is 0.00159 s⁻¹ and the kon was found to be 1.31e+06 M⁻¹ s⁻¹. The molecule further gave a t½ in test [4] of 7 min. The “100 nM Mouse Receptor Binding” value with dimeric mouse ACVRL1 is 3 RU. Besides, the “100 nM Mouse Receptor Binding” value in the test with dimeric mouse BMPR1B was found to be 1 RU.

B2: REGN 5167 (antibody, human IgG4 S228P, kappa, V domains shown)
VH: QLQLQESGPGLVKPSETLSLTCTVSGGSITSSSYYWAWIRQPPGKGLEWIGKIYYSGSTHYNPSLKSRVTISVDTSKNQFSLKLSSVTAADTAVYYCARVGGHGYGDSAGLAFDIWGQGTMVTVSS
VL: EIVLTQSPGTLSLSPGERATLSCRASQSVSSAFLAWYQQKPGQAPRLLIYGASYRHTGIPDRFSGSGSGTDFTLTISRLEPEDFAVYYCQHYGVGPRTFGGGTKVEIKR
notes: also called REGN 5167-L1
As to B2, in test [1], the “100 nM Ag Bound (RU)” value is 43 RU, the Kd came out at 0.226 nM, the koff worked out at 0.000161 s⁻¹ and the kon came to 713000 M⁻¹ s⁻¹. This molecule registered a t½ in test [1] of 72 min. In addition, in test [2], the “100 nM Ag Bound (RU)” value worked out at 135 RU, the Kd came out at 0.0192 nM, the koff is 3.63e-05 s⁻¹ and the kon was 1.89e+06 M⁻¹ s⁻¹. For the same molecule, in test [2], the t½ was determined as 318 min. Besides, in test [3], the “100 nM Ag Bound (RU)” value amounted to 141 RU, the Kd was determined as 0.0481 nM, the koff was determined as 5.36e-05 s⁻¹ and the kon stood at 1.11e+06 M⁻¹ s⁻¹. In addition, the t½ in test [3] was 215 min. Besides, in test [4], the “100 nM Ag Bound (RU)” value turned out to be 43 RU, binding was characterised by a dissociation constant (Kd) of 0.227 nM, the koff was found to be 0.000163 s⁻¹ and the kon was found to be 718000 M⁻¹ s⁻¹. The molecule also showed a t½ in test [4] of 71 min. In the test with dimeric mouse ACVRL1, the “100 nM Mouse Receptor Binding” value worked out at 1 RU. For the same molecule, the “100 nM Mouse Receptor Binding” value with dimeric mouse BMPR1B was 1 RU.

B3: REGN 5166 (antibody, human IgG4 S228P, kappa, V domains shown)
VH: QVQLVESGGGVVQPGRSLRLSCAASGFTFSAYWMHWVRQAPGKGLEWVAVISYDGSNKYYADSVKGRFTISRDHSKNTLYLQMNSLRAEDTAVYYCAKGDAYDSWRILLGGDYYGMDVWGQGTTVTVSS
VL: EIVLTQSPGTLSLSPGERATLSCRASQSVSSSYLAWYQQKPGQAPRPLIYGASSRATGIPDRFSGSGSGTDFTLTISRLEPEDFAVYYCQQGGDAPPYTFGGGTKVEIKR
notes: also called REGN 5166-L1
Turning to B3, the “100 nM Ag Bound (RU)” value stood at 43 RU in test [1], 134 RU in test [2], 142 RU in test [3] and 43 RU in test [4]. In addition, the Kd stood at 0.268 nM in test [1], 0.0179 nM in test [2], 0.0478 nM in test [3] and 0.26 nM in test [4]. Besides, the koff worked out at 0.000181 s⁻¹ in test [1], 3.63e-05 s⁻¹ in test [2], 5.65e-05 s⁻¹ in test [3] and 0.000176 s⁻¹ in test [4]. The kon is 674000 M⁻¹ s⁻¹ in test [1], 2.03e+06 M⁻¹ s⁻¹ in test [2], 1.18e+06 M⁻¹ s⁻¹ in test [3] and 677000 M⁻¹ s⁻¹ in test [4]. The t½ was 64 min in test [1], 318 min in test [2], 204 min in test [3] and 65 min in test [4]. Also, the “100 nM Mouse Receptor Binding” value turned out to be 4 RU in the test with dimeric mouse ACVRL1 and 1 RU with dimeric mouse BMPR1B.

The term Kd denotes a measure of binding affinity in units of concentration. A high value points to lower affinity. One may read the koff as a measure of how fast the partners let go of each other. Low values mean a long-lived complex, high ones a short-lived complex. As a reminder, the kon is a measure of how fast the partners come together. Low values mean slower complex formation, high ones faster complex formation. Broadly, the t½ is how long it takes for the measured level to halve. Higher therefore signals slow decline.
